Source: paper PMC10786401

What was measured:
[1] = biological target: N67A mutant ZIKV capsid (C) protein as N-terminal MBP fusion (MBP-C_(N67A)) (Zika virus MR766); test: cross-linking; glutaraldehyde 0, 0.25, 0.5 and 1.0 mM; MBP-C protein 0.16 mg/ml in PBS, 50 uL, room temperature, 20 min, stopped with 50 mM Tris pH 8; SDS-PAGE, Coomassie blue
[2] = biological target: Wild-type ZIKV capsid (C) protein as N-terminal MBP fusion (MBP-CWT) (Zika virus MR766); test: as above

Substance	stoichiometry N [1]	stoichiometry N [2]
N67A mutant ZIKV capsid (C) protein as N-terminal MBP fusion (MBP-C_(N67A)) (natural protein)	2	–
Wild-type ZIKV capsid (C) protein as N-terminal MBP fusion (MBP-CWT) (natural protein)	–	2
